Reference: patent publication US20240417485A1 (UNIVERSITY OF PITTSBURGH OF THE COMMONWEALTH SYSTEM OF …, published 2024)

B1: VH 3 (VHH)
VHH: EVQLVESGGGLVQPGGSLRLSCAASGFTFSRYWMSWVRQAPGKALEWIGEINHSGSTNYNPSLKSLVTISRDNSKNTLYLQMNSLRAEDTATYYCARSLVPALSYYYYYGMDVWGQGTTVTVSS
notes: Fully human single VH domain from a phage library, expressed in E. coli; It was purified on Ni-NTA and detected with anti-FLAG, so a His tag and a FLAG tag are implied; also called clone 3; anti-uPAR VH 3
B2: VH 115 (VHH)
VHH: EVQLVESGGGLVQPGGSLRLSCKGSGFTFGDYAIGWVRQAPGQRLEWIGWINTNSGSPKYAQGFTGRFTISRDNSKNTLYLQMNSLRAEDTAVYYCATDVVVPWGQGSQVTVSS
notes: Fully human single VH domain from a phage library, expressed in E. coli; It was purified on Ni-NTA and detected with anti-FLAG, so a His tag and a FLAG tag are implied
B3: DbTE 115 (bispecific antibody, human IgG1)
chain: EVQLVESGGGLVQPGGSLRLSCKGSGFTFGDYAIGWVRQAPGQRLEWIGWINTNSGSPKYAQGFTGRFTISRDNSKNTLYLQMNSLRAEDTAVYYCATDVVVPWGQGSQVTVSSGSGSSGSGSSGSGSSQVQLVQSGGGVVQPGRSLRLSCKASGYTFTRYTMHWVRQAPGKGLEWIGYINPSRGYTNYNQKVKDRFTISRDNSKNTAFLQMDSLRPEDTGVYFCARYYDDHYCLDYWGQGTPVTVSSGGGGSGGGGSGGGGSGGGGSGGGGSGGGGSDIQMTQSPSSLSASVGDRVTITCSASSSVSYMNWYQQTPGKAPKRWIYDTSKLASGVPSRFSGSGSGTDYTFTISSLQPEDIATYYCQQWSSNPFTFGQGTKLQITRGSGSSGDKTHTCPPCPAPEAAGGPSVFLFPPKPKDTLMISRTPEVTCVVVDVSHEDPEVKFNWYVDGVEVHNAKTKPREEQYNSTYRVVSVLTVLHQDWLNGKEYKCKVSNKALGAPIEKTISKAKGQPREPQVYTLPPSRDELTKNQVSLTCLVKGFYPSDIAVEWESNGQPENNYKTTPPVLDSDGSFFLYSKLTVDKSRWQQGNVFSCSVMHEALHNHYTQKSLSLSPGKGSHHHHHH
B4: DbTE 3 (bispecific antibody, human IgG1)
chain: EVQLVESGGGLVQPGGSLRLSCAASGFTFSRYWMSWVRQAPGKALEWIGEINHSGSTNYNPSLKSLVTISRDNSKNTLYLQMNSLRAEDTATYYCARSLVPALSYYYYYGMDVWGQGTTVTVSSGSGSSGSGSSGSGSSQVQLVQSGGGVVQPGRSLRLSCKASGYTFTRYTMHWVRQAPGKGLEWIGYINPSRGYTNYNQKVKDRFTISRDNSKNTAFLQMDSLRPEDTGVYFCARYYDDHYCLDYWGQGTPVTVSSGGGGSGGGGSGGGGSGGGGSGGGGSGGGGSDIQMTQSPSSLSASVGDRVTITCSASSSVSYMNWYQQTPGKAPKRWIYDTSKLASGVPSRFSGSGSGTDYTFTISSLQPEDIATYYCQQWSSNPFTFGQGTKLQITRGSGSSGDKTHTCPPCPAPEAAGGPSVFLFPPKPKDTLMISRTPEVTCVVVDVSHEDPEVKFNWYVDGVEVHNAKTKPREEQYNSTYRVVSVLTVLHQDWLNGKEYKCKVSNKALGAPIEKTISKAKGQPREPQVYTLPPSRDELTKNQVSLTCLVKGFYPSDIAVEWESNGQPENNYKTTPPVLDSDGSFFLYSKLTVDKSRWQQGNVFSCSVMHEALHNHYTQKSLSLSPGKGSHHHHHH
notes: Single chain: VH 3, linker, humanized OKT3 scFv (VH-(G4S)6-VL), human IgG1 Fc with LALAPG mutations, His tag; also called anti-uPAR DbTE 3; domain-based bispecific T cell engager 3

target: T1, Human uPAR-His recombinant protein (human, UniProt Q03405 23-303); test: ELISA, uPAR-His coated, anti-FLAG-HRP detection
T1 construct: Bought protein; also called recombinant human uPAR; recombinant human uPAR protein; not shown: His tag

Binder | EC50
B1 | 12.1 nM
B2 | 34.2 nM

target: T2, recombinant uPAR-Biotin (human, UniProt Q03405 23-303, limits assumed, biotin, site not stated); test: BLItz, uPAR-Biotin on streptavidin biosensor
T2 construct: also called human uPAR (BLItz)

Binder | Kd | koff | kon
B3 | 1.2 nM | 4.2e-05 s⁻¹ | 36000 M⁻¹ s⁻¹
B1 | 17.1 nM | 0.0014 s⁻¹ | 79000 M⁻¹ s⁻¹
B2 | 1.7 nM | 3.6e-05 s⁻¹ | 21000 M⁻¹ s⁻¹
B4 | 6.6 nM | 0.00072 s⁻¹ | 110000 M⁻¹ s⁻¹

target: human CD3 protein (human); test: ELISA, human CD3 protein coated, anti-human IgG1 Fc-HRP detection
Experimental: (§1) ELISA: The binding and specificity of VH, VH-Fc, and DbTE to uPAR or CD3 were analyzed by ELISA. uPAR-His protein or CD3 protein was coated at 50 ng/well at 4° C. overnight, then blocked with 5% milk for 1 hours at 37° C. After washing 3 times by 0.05% PBST, 3-fold serially diluted VH and VH-Fc binders were incubated on the plate for 1 hour at 37° C. The binding of VH candidates was detected by anti-FLAG M2-peroxidase (HRP) antibody (Sigma-Aldrich) while VH-Fc or DbTE binding was detected by HRP conjugated goat anti-human IgG1 Fc (Sigma-Aldrich) at 1:1000 dilution. The plates were washed 3 times by 0.05% PBST between each reagent's incubation. Binding activity was detected using 3,3′,5,5′-tetramethylbenzidine (Sigma-Aldrich) and was stopped by TMB stop buffer (ScyTek Laboratories). Absorbance was read at 450 nm.

Binder | EC50
B3 | 8.7 nM
B4 | 28.8 nM

target: T1, Human uPAR-His recombinant protein; test: ELISA, recombinant human uPAR coated, anti-human IgG1 Fc-HRP detection
Experimental: as §1

Binder | EC50
B3 | 28 nM
B4 | 7.7 nM
